According to the supplement of paper PMC10567573:
± gives the standard deviation.

Assay: protein stability index of a GFP-peptide fusion (GPS, HEK-293T) (PSI 1-6); higher = more stable
Details: c terminus: a fixed tail appended
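Further: 24-mer peptide tiles fused after GFP, lentivirally expressed, FACS-sorted into six equal bins by GFP/DsRed ratio, decoded by Illumina sequencing, PSI is the read-weighted mean bin number.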

## NNSWIRKNSTMVNSEDIFLLLCLK [TRIM43]
treatment: DMSO
  protein stability index: 2.84 ± 0.42
treatment: MLN4924 1 uM, 8 h
  protein stability index: 2.23 ± 0.43

## VSAIIWEGNECKKMDMSVLEISGI [PHTF1]
treatment: DMSO
  protein stability index: 2.11 ± 0.58
treatment: MLN4924 1 uM, 8 h
  protein stability index: 2.41 ± 0.83

## HGSPQLGEGMFQHQTSVAHQPVVR [TBX5]
treatment: DMSO
  protein stability index: 4.19 ± 0.28
treatment: MLN4924 1 uM, 8 h
  protein stability index: 4.13 ± 0.17

## TVLLVLEDEDPEEMPKSSDFLIHP [PCDHGC5]
treatment: DMSO
  protein stability index: 2.75 ± 0.15
treatment: MLN4924 1 uM, 8 h
  protein stability index: 2.91 ± 0.21

## AHSNEILIFSVQPKSLVRLSLEAV [KLHDC2]
treatment: DMSO
  protein stability index: 3.01 ± 0.48
treatment: MLN4924 1 uM, 8 h
  protein stability index: 2.6 ± 0.12
